Experiment [1] deals with T1, His-tagged rhesus CD40 (rhesus-CD40-his) recombinant protein (rhesus, UniProt F6SNI1 21-193).
T1 construct: range 21-193; Bought from Acrobiosystems (# CD0-052H7); not shown: His tag
As to the kind of experiment: ELISA, rhesus CD40-his coated. On the procedure:
(§1) Binding properties of anti-CD40 antibodies was detected by ELISA assay. The CD40 recombinant protein with his-tag was directly used for coating, after the antibody was added, the binding activity of the antibody to the antigen—was detected by adding a secondary antibody (HRP-conjugated anti-antibody Fc antibody) and HRP substrate TMB.
(§2) A 96-well microtiter plate was coated with 100 μl/well of human or rhesus CD40-his protein at a concentration of 0.5 μg/ml and incubated overnight at 4° C. The plate was rinsed three times with rinsing buffer, 250 μl per well. For each rinsing, the plate was shaken for 10 seconds to ensure sufficient cleaning. 200 μl blocking solution was added in each well and incubated for 2 hours at room temperature. Then the plate was washed three times with 250 μl per well. The plate was shaken for 10 seconds in each rinsing to ensure sufficient cleaning. 100 μl of anti-CD40 antibody to be tested diluted in dilution was added to each well, and incubated for 1 hour at room temperature, then rinsing the plate for three times with 250 μl of rinsing buffer per well. 100 μl of HRP-labeled goat anti-human IgG secondary antibody diluted 1:20000 with diluent was added to each well, and incubated for 1 hour at room temperature. Then the plate was washed three times with 250 μl per well. 100 μl of TMB was added to each well and allowed to react for 15 minutes in the dark. 50 μl of 0.16 M sulfuric acid per well was added. The OD value was measured at 450 nm by Thermo MpμltiSkanFc plate reader and the binding EC50 value of the CD40 antibody to […] was calculated.
Background: An ELISA detects its analyte on a solid surface through an enzyme-linked reagent.

In experiment [2] the target is T2, His-tagged human CD40 (h-CD40-his) recombinant protein (human, UniProt P25942 21-193).
T2 construct: range 21-193; Bought from Acrobiosystems; also called Human CD40-his; not shown: His tag
As to the kind of experiment: ELISA, human CD40-his coated. On the procedure:
as §1, §2

Experiment [3] deals with T3, His-tagged mouse CD40 (m-CD40-his) recombinant protein (mouse, UniProt P27512 24-193).
T3 construct: range 24-193; Bought from Acrobiosystems; also called Mouse CD40-his; not shown: His tag
As to the kind of experiment: ELISA, CD40-his coated.

Experiment [4] addresses human CD40 on HEK293 cells stably transfected with the human CD40 gene (HEK-Blue CD40L cells) (human, UniProt P25942 21-277). As to the kind of experiment: cell-based or functional assay.
Experiment [5] concerns the target T2, His-tagged human CD40 (h-CD40-his) …. As to the kind of experiment: Biacore, affinity to human CD40. An excerpt: (§3) Human antibody captured antibody was covalently coupled to CM5 biosensor chip of Biacore instrument (Biacore X100, GE) according to the method described in the description of Human Antibody Capture Kit (Cat. BR-1008-39, GE), thereby capturing a certain amount of chimeric or humanized antibodies to be tested based on affinity. Then a series of concentration gradient CD40 antigens (purchased from Acrobiosystems) flowed through the surface of chip, and Biacore X100 (GE) was used to detect the reaction signals in real time to obtain the binding and dissociation curves. After the completion of each cycle of dissociation, the biochip was rinsed and regenerated with the regeneration solution provided by the Human Antibody Capture Kit. Amine Coupling Kits (Cat. BR-1000-50, GE) were purchased from GE, and the buffer solution HBS-EP+buffer 1× (pH 7.4), which was obtained from HBS-EP+buffer 10× (Cat. BR-1006-69, GE) by dilution with D. I. Water.

The target is the same in experiment [6]. As to the kind of experiment: Biacore X100, antibody captured by anti-human antibody on CM5 chip, CD40 antigen as analyte, 1:1 model.
From the text: as §3
A general note: SPR reads the build-up and loss of mass on a sensor chip optically.

human CD40 on HEK293 cells stably transfected with the human CD40 gene (HEK-Blue CD40L cells), sequence (P25942 21-277): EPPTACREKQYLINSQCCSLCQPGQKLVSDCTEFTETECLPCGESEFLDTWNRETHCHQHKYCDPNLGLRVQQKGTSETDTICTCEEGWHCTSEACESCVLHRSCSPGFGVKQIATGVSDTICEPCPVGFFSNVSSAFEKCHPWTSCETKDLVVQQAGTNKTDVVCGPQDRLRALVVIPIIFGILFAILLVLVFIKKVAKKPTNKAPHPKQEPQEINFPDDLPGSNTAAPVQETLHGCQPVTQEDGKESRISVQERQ
T2 sequence (P25942 21-193 limits assumed): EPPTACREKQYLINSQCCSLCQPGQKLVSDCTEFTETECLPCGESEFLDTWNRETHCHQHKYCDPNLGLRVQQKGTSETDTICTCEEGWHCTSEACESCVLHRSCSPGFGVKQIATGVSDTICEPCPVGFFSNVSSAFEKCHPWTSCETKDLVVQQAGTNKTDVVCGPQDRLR
T3 sequence (P27512 24-193 limits assumed): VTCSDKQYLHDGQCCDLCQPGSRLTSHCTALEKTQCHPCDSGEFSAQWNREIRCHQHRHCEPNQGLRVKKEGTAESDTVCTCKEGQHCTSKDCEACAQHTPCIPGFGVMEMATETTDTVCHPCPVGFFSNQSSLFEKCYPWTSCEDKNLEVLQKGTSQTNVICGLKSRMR

B1: mouse hybridoma anti-human CD40 antibody 38B4 (antibody, V domains shown)
VH: QVRLKQSGAELVRPGASVKVSCKASGYTFTDYYINWVKQRPGQGLEWIAGIYPGTGNTYYNEKFKGKATLTAERSSSTAYMQLTSLTSEDSAVYFCTRRGLPSLCFDYWGQGTTLTVSS
VL: DFQMTQTTSSLSASLGDRVTISCSASQGISNYLNWYQQKPDGTVKLLIYYTSSLHSGVPSRFSGSGSGTDYSLTISNLEPEDIATYYCQQYSKLPPTFGGGTKLEIK
notes: Murine hybridoma antibody
By EC50 is commonly meant the concentration at which the effect is half-maximal. Consider B1, for which the EC50 is 11.8 ng/mL in experiment [1] and 12.9 ng/mL in experiment [2]. In addition, in experiment [3], the binding result is “no binding”. Moreover, the “HEK293-CD40L cells activity assay EC50” value in experiment [4] is 36.5 ng/mL.

B2: humanized anti-CD40 antibody hu9E5 (H1c heavy chain and L1a light chain) (antibody, human IgG1, kappa, V domains shown)
VH: QVQLVQSGAEVKKPGASVKVSCKASGYILTTYWITWVRQAPGQGLEWMGDIHPGSGSTKYNEKFKSRVTLTVDTSISTAYMELSRLRSEDTAVYYCARRDYWGQGTTVTVSS
VL: DIVMTQSPLSLPVTPGEPASISCRSSQNIVNSQGNTYLEWYLQKPGQSPQLLIYKVTNRFSGVPDRFSGSGSGTDFTLKISRVEAEDVGVYYCFQASLVPWTFGGGTKVEIKR
notes: the suffix -25 is not explained; Human IgG1/kappa; also called Hu9E5-25
Broadly, the Kd is the constant that tells how readily two partners part at equilibrium. As for B2, in experiment [1], the EC50 worked out at 1.66 ng/mL. The EC50 in experiment [2] was 1.65 ng/mL. In experiment [5], the “fold of affinity against the Alligator reference” value was found to be 9 times and the “fold of affinity against the Pfizer reference” value was 3 times. For the same molecule, the Kd in experiment [6] was determined as 5.3 nM.

B3: mouse hybridoma anti-human CD40 antibody 2H6 (antibody, V domains shown)
VH: QVQLQQSGAELVRPGTSVKVSCKASGYAFSDYLIEWAKQRPGQGLEWIGVINPGSGGSNYNEKIKDRATLTADKSSSTAYMQLSSLTSEDSAVYFCARGGGGFTYWGQGTLVTVSA
VL: EIQLTQTTSSLSASLGDRVTISCRASQDISNYLNWYQQKPDGTIKLLLNFASRLHSGVPSRFSGSGSGTDFFLTISNLEQDDIATYFCQQGSTLPWTFGGGTKLEIK
notes: Murine hybridoma antibody; also called mouse mAb 2H6
With B3, the EC50 in experiment [1] was 7.21 ng/mL; in experiment [2], 7.06 ng/mL. Also, the binding result in experiment [3] was “no binding”. Further, the “HEK293-CD40L cells activity assay EC50” value in experiment [4] is 15.1 ng/mL.

B4: human-mouse chimeric antibody 2H6-C (antibody, V domains shown)
VH: QVQLQQSGAELVRPGTSVKVSCKASGYAFSDYLIEWAKQRPGQGLEWIGVINPGSGGSNYNEKIKDRATLTADKSSSTAYMQLSSLTSEDSAVYFCARGGGGFTYWGQGTLVTVSA
VL: EIQLTQTTSSLSASLGDRVTISCRASQDISNYLNWYQQKPDGTIKLLLNFASRLHSGVPSRFSGSGSGTDFFLTISNLEQDDIATYFCQQGSTLPWTFGGGTKLEIK
notes: Variable regions of murine 2H6 ligated to the constant region of human antibody IgG1; made in HEK293 cells
As to B4, in experiment [2], the EC50 worked out at 4.56 ng/mL. The Kd in experiment [6] is 3.98 nM.

B5: mouse hybridoma anti-human CD40 antibody 14C10 (antibody, V domains shown)
VH: QVQVQQSGAELVRPGTSVKVSCKASGYAFTNYLIEWVKQRPGQGLEWIGVINPEFGGTNYNEKFKGKATLTADKSSSTAYMQLSSLTSEDSAVYFCARGGGGFTYWGQGTLVTVSA
VL: HIQMTQTTSSLSASLGDRVTISCRASQDISSHLNWYQQKPDGTVKLLISYTSRLHSGVPSRFSGSGSGADYSLTISNLEQEDIATYFCQQGNTLPWTFGGGTKLEIK
notes: Murine hybridoma antibody
B5: the EC50 came to 9.49 ng/mL in experiment [1] and 8.81 ng/mL in experiment [2]. Also, the binding result in experiment [3] is recorded as “no binding”. Besides, the “HEK293-CD40L cells activity assay EC50” value in experiment [4] was 10.9 ng/mL.

B6: mouse hybridoma anti-human CD40 antibody 9E5 (antibody, V domains shown)
VH: QVQLQQPGADLVKPGASVKMSCKASGYILTTYWITWVKQRPGQGLEWIGDIHPGSGSTKYNEKFKSKATLTVDTSSSTAYMQLTRLSSEDSAVYYCARRDYWGQGTTLTVSS
VL: DVLMTQSPLSLPVSLGDQASISCRSSQNIVNSQGNTYLEWYLQKPGESPKLLIYKVTNRFSGVPDRFSGSGSGTDFTLKISRVEAEDLGVYYCFQASLVPWTFGGGTKLEIK
notes: Murine hybridoma antibody; also called mouse 9E5
As for B6, the half-maximal effective concentration (EC50) in experiment [1] was 6.7 ng/mL; in experiment [2], 6 ng/mL. Also, the binding result in experiment [3] is on record as “no binding”. Also, the “HEK293-CD40L cells activity assay EC50” value in experiment [4] came out at 17.1 ng/mL.

B7: human-mouse chimeric antibody 9E5-C (antibody, V domains shown)
VH: QVQLQQPGADLVKPGASVKMSCKASGYILTTYWITWVKQRPGQGLEWIGDIHPGSGSTKYNEKFKSKATLTVDTSSSTAYMQLTRLSSEDSAVYYCARRDYWGQGTTLTVSS
VL: DVLMTQSPLSLPVSLGDQASISCRSSQNIVNSQGNTYLEWYLQKPGESPKLLIYKVTNRFSGVPDRFSGSGSGTDFTLKISRVEAEDLGVYYCFQASLVPWTFGGGTKLEIK
notes: Variable regions of murine 9E5 ligated to the constant region of human antibody IgG1; made in HEK293 cells
B7: in experiment [2], the EC50 came out at 1.35 ng/mL. For the same molecule, the Kd in experiment [6] is 2.68 nM.

B8: mouse hybridoma anti-human CD40 antibody 1D9 (antibody, V domains shown)
VH: QVRLQQSGAELVRPGTSMRVSCKASGYAFTNYLINWVKQRPGQGLEWIGILNPGSGGTNYNENFKDKATLTADKSSNTAYMQLSSLTSEDSAVYFCIRGSPGFAYWGQGTLVTVSA
VL: DIQMTQTTSSLSASLGDRVTISCRASQDINIYLNWYQQKPDGTVKLLIYSTSGLHSGVPSRFNGSGSGTDYSLTISNLEQEDIATYFCQQGYTLPYTFGGGTKLEIK
notes: Murine hybridoma antibody
Regarding B8, the EC50 in experiment [1] came out at 9.81 ng/mL; in experiment [2], 10 ng/mL. In addition, in experiment [3], the binding result is on record as “no binding”. Further, in experiment [4], the “HEK293-CD40L cells activity assay EC50” value was determined as 14.5 ng/mL.

B9: humanized anti-CD40 antibody hu2H6 (H1b heavy chain and L1c light chain) (antibody, human IgG1, kappa, V domains shown)
VH: QVQLVQSGAEVKKPGSSVKVSCKASGYAFSDYLIEWVRQAPGQGLEWMGVINPGSGGSNYNEKIKDRVTLTADKSTSTAYMELSSLRSEDTAVYYCARGGGGFTYWGQGTLVTVSS
VL: DIQLTQSPSSLSASVGDRVTITCRASQDISNYLNWYQQKPGKTIKLLLNFASRLHSGVPSRFSGSGSGTDFTFTISSLQPEDIATYYCQQGSTLPWTFGGGTKVEIKR
notes: the suffix -11 is not explained; Human IgG1/kappa; also called Hu2H6-11
For B9, the EC50 in experiment [1] was 2.95 ng/mL; in experiment [2] it was 3.68 ng/mL. Further, the Kd in experiment [6] worked out at 11.2 nM.
